Results from paper doi:10.1101/2025.10.16.682859 (bioRxiv, 2025).

Target: the molecule itself
Experiment: cryo-EM structure

B1: human asparagine synthetase (ASNS) (enzyme)
chain: CGIWALFGSDDCLSVQCLSAMKIAHRGPDAFRFENVNGYTNCCFGFHRLAVVDPLFGMQPIRVKKYPYLWLCYNGEIYNHKKMQQHFEFEYQTKVDGEIILHLYDKGGIEQTICMLDGVFAFVLLDTANKKVFLGRDTYGVRPLFKAMTEDGFLAVCSEAKGLVTLKHSATPFLKVEPFLPGHYEVLDLKPNGKVASVEMVKYHHCRDVPLHALYDNVEKLFPGFEIETVKNNLRILFNNAVKKRLMTDRRIGCLLSGGLDSSLVAATLLKQLKEAQVQYPLQTFAIGMEDSPDLLAARKVADHIGSEHYEVLFNSEEGIQALDEVIFSLETYDITTVRASVGMYLISKYIRKNTDSVVIFSGEGSDELTQGYIYFHKAPSPEKAEEESERLLRELYLFDVLRADRTTAAHGLELRVPFLDHRFSSYYLSLPPEMRIPKNGIEKHLLRETFEDSNLIPKEILWRPKEAFSDGITSVKNSWFKILQEYVEHQVDDAMMANAAQKFPFNTPKTKEGYYYRQVFERHYPGRADWLSHYWMPKWINATDPSARTLTHYKSAVKA
stoichiometry N: 2
